Test results published in US20130058939A1.

Molecular target: low-density lipoprotein (LDL) receptor-related protein (LRP) on bovine brain capillary endothelial cells of the in vitro BBB model (bovine)
Assay: cell-based or functional assay
Settings: for alteplase (% of passage versus filter), spectrozyme assay, in vitro BBB model: scale: % of passage versus filter for alteplase alone

Sequence of DSPAα1 (Desmoteplase) (P98119 37-477 limits assumed): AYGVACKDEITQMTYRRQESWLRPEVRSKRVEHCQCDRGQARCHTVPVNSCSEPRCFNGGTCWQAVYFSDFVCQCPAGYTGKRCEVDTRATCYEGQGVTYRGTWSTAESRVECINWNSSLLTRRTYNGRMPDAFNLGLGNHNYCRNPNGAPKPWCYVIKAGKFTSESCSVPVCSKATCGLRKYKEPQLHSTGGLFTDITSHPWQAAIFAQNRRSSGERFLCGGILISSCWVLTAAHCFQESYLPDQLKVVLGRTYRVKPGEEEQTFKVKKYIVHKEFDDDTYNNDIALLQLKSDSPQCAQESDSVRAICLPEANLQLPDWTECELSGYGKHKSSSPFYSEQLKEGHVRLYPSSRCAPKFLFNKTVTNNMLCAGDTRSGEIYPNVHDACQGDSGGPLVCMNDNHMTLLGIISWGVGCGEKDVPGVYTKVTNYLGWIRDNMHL
Sequence of clogged Desmoteplase (cDSPA), DSPA alpha 1 inactivated with D-phenyl-prolyl-arginine chloromethyl ketone (P98119 37-477 limits assumed): as above
Sequence of DSPA α2 (alpha 2) (P15638 37-477 limits assumed): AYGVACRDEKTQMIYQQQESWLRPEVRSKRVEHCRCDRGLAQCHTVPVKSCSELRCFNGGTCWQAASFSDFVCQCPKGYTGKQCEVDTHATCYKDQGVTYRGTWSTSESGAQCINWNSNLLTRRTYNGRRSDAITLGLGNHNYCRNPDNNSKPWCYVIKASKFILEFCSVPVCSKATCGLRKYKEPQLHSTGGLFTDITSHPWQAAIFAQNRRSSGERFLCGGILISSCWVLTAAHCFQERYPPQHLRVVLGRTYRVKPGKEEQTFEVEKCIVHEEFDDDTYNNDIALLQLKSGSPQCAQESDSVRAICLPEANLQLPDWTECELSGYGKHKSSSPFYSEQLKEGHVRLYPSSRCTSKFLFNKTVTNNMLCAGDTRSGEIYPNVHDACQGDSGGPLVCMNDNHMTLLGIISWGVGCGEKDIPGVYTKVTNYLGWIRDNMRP

| Substance | % of abluminal alteplase (zymography assay; alteplase alone = 100), in vitro BBB model (% of abluminal alteplase alone) | alteplase (% of passage versus filter), spectrozyme assay, in vitro BBB model |
| --- | --- | --- |
| DSPAα1 (Desmoteplase) (from UniProt P98119 37-477) (enzyme) | 46.6 | 67 |
| clogged Desmoteplase (cDSPA), DSPA alpha 1 inactivated with D-phenyl-prolyl-arginine chloromethyl ketone (from UniProt P98119 37-477) (enzyme) | 73.3 | 76.3 |
| DSPA α2 (alpha 2) (from UniProt P15638 37-477) (enzyme) | 25.1 | 61.9 |
| Reteplase (Rapilysin) (enzyme) | 51.6 | – |
